Earlier results, collected in article PMC7460564.
Read-outs that look alike come from different tables or passages of the source.

Legend:
EGFR ECD (Homo sapiens) [1] = molecular target: EGFR ECD (Homo sapiens) (UniProt P00533)
HER2 (Homo sapiens) = HER2 (Homo sapiens) (UniProt P04626)
EGFR ECD (Homo sapiens) [2] = molecular target: EGFR ECD (Homo sapiens) (UniProt P00533); remark: listed apart in the source
EGFR (Homo sapiens) = EGFR (Homo sapiens) (UniProt P00533)

Kd (EGFR ECD (Homo sapiens) [1]) [nM]	Kd (HER2 (Homo sapiens)) [nM]	Kd (EGFR ECD (Homo sapiens) [2]) [nM]	Kd (EGFR (Homo sapiens)) [nM]	Substance
15				EGF (from UniProt P01133)
	7.3	5300	17.7	PEPD (prolidase) (from UniProt P12955)
